Results on 16 molecules are retold here after patent US20230257470A1 (published 2023).

Numbering of substitutions follows the chain as printed. Names may count otherwise.

For assay [1], the target named is T1, human FcγRIIa type R (human, UniProt P12318 36-217).
T1 construct: also called FcγRIIaR; FcγRIIa(R)
T1 chain: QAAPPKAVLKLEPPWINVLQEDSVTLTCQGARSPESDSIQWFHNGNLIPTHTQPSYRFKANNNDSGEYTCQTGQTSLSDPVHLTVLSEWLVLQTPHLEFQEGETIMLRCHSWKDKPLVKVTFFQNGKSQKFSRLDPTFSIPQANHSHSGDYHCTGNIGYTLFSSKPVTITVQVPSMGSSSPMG
Briefly: SPR (Biacore), antibody captured, FcγR as analyte, method of Example 14. On the technique in general: In SPR one partner is held on a chip, and binding of the other changes the refractive index at the surface.

The next assay concerns the target T2, mouse FcγRIIb (mouse, UniProt P08101 40-217, limits assumed).
T2 construct: Bought protein; construct not described; also called mFcgRIIb
T2 sequence (looked up): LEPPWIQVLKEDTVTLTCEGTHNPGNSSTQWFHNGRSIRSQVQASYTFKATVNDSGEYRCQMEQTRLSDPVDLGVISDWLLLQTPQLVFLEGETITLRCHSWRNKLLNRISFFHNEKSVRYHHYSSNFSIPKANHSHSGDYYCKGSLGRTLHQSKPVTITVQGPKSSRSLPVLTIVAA
Briefly: SPR, antibody captured by Protein L, mouse FcγR injected, pH 7.4.

The next assay has as its target T3, mouse FcγRIII (mouse, UniProt P08508 31-215).
T3 construct: Bought protein; construct not described; also called mFcgRIII
T3 sequence (looked up): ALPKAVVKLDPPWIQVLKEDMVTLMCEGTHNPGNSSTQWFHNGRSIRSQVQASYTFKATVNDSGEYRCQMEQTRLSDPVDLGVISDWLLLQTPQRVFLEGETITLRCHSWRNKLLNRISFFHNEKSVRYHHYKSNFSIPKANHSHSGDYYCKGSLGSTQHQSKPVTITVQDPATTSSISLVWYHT
The description is as above.

Another assay concerns the target T4, mouse FcγRI (mouse, UniProt P26151 25-297).
T4 construct: Bought protein; construct not described; also called mFcgRI
T4 sequence (looked up): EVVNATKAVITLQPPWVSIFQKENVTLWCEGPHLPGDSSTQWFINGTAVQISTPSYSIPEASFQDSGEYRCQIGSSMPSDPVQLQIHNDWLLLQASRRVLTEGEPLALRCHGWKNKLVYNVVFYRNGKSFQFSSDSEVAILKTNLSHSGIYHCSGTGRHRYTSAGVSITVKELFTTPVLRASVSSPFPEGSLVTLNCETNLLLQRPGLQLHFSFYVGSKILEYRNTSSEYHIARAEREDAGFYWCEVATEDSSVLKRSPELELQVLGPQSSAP
Described as above.

In assay [2] the target is T5, human FcγRIIb (human, UniProt P31994 43-217, limits assumed).
T5 construct: Whole entry (AAI46679.1); also called FcγIIB; FcgRIIb
T5 sequence: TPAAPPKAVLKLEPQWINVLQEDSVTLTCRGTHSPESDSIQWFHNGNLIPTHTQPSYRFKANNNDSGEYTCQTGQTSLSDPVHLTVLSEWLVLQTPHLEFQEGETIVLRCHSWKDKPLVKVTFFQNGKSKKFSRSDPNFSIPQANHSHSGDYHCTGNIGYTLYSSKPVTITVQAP
The assay is described as follows: ratio of SPR KD values: KD for FcγRIIaH divided by KD for FcγRIIb.

The target of assay [3] is T6, human FcγRIIa type R (human, UniProt P12318 36-217).
T6 construct: also called FcγRIIaR; FcγRIIa(R)
T6 chain: T1 chain
Briefly: SPR (Biacore), antibody captured on Protein A chip, FcγR as analyte, 25 C, method of Example 14.

Assay [4] concerns the target T5, human FcγRIIb. The assay is described as above.
In assay [5] the target is T7, human FcγRIIb (human, UniProt P31994 43-217, limits assumed).
T7 construct: also called FcgRIIb; FcγIIB
T7 sequence: T5 sequence
The assay is described as follows: SPR, antibody captured, FcγR as analyte, capture-corrected binding amount.

The next assay deals with T8, human FcγRIIIa(F) (human, UniProt P08637 17-208, limits assumed).
T8 construct: the assay used allotype F; also called FcgRIIIaF; FcγRIIIa allotype F158
T8 sequence (P08637 other isoform, or with tags, fused parts or gaps limits assumed): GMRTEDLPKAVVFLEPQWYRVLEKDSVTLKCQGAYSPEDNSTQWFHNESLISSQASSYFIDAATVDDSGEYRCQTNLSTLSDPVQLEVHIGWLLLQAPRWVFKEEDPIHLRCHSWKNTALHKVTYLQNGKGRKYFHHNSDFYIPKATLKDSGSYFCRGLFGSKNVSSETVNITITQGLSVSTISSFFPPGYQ
Described as above.

Another assay deals with T9, human FcγRIIa(R) (human, UniProt P12318 36-217).
T9 construct: also called FcgRIIaR; FcγRIIa type R
T9 chain: T1 chain
The assay is described as follows: SPR, captured antibody, FcγR analyte; bound amount per captured antibody.

Assay [6] concerns the target T10, human FcγRIIb (human, UniProt P31994 43-217, limits assumed).
T10 construct: Soluble analyte in SPR; also called FcgRIIb; FcγIIB
T10 sequence: T5 sequence
The assay is described as follows: SPR, captured antibody, FcγR as analyte.

B1: IL6R-PD082/IL6R-L (antibody, human IgG1)
heavy: QVQLQESGPGLVKPSETLSLTCAVSGHSISHDHAWSWVRQPPGEGLEWIGFISYSGITNYNPSLQGRVTISRDNSKNTLYLQMNSLRAEDTAVYYCARSLARTTAMDYWGEGTLVTVSSASTKGPSVFPLAPSSKSTSGGTAALGCLVKDYFPEPVTVSWNSGALTSGVHTFPAVLQSSGLYSLSSVVTVPSSSLGTQTYICNVNHKPSNTKVDKKVEPKSCDKTHTCPPCPAPELLGFDSVFLFPPKPKDTLYISRTPEVTCVVVDVSHEDPEVKFNWYVDGVEVHNAKTKPREEQYNSTYRVVSVLTVLHQDWLNGKEYKCKVSNKALPAPIEKTISKAKGQPREPQVYTLPPSRDELTKNQVSLTCLVKGFYPSDIAVEWESNGQPENNYKTTPPVLDSDGSFFLYSKLTVDKSRWQQGNVFSCSVMHEALHYHYTQKSLSLSP
light: DIQMTQSPSSLSASVGDRVTITCRASQDISSYLNWYQQKPGKAPKLLIYYTSRLHSGVPSRFSGSGSGTDFTFTISSLQPEDIATYYCQQGNTLPYTFGQGTKVEIK
notes: Alteration is counted against IL6R-F11; also called G237F/P238D; P238D/G237F
In the case of B1, binding with human FcγRIIa type R [1] was put at a Kd of 1.4 µM.

B2: VH3/L(WT)-IgG1-F821 (antibody)
heavy: B1 heavy with L237R, F239G, D240P, S241K
light: not shown
notes: L235R/S239K variant of VH3-IgG1-F11 with L(WT)-CK; also called VH3-IgG1-F821; copies: 2 + 2
On to B2, for which the binding result in the assay with mouse FcγRIIb, with mouse FcγRIII and in the assay with mouse FcγRI was “no binding” each time.

B3: IL6R-BP143/IL6R-L (antibody, human IgG1, name in EU numbering)
heavy: B1 heavy with L236Y, F239G, Y254M, K328A, Y436N, K441E
light: B1 light
notes: Alterations introduced into IL6R-B3 (EU numbering)
On to B3, for which the “KD(IIaH)/KD(IIb)” value in the assay with human FcγRIIb [2] amounted to 4.71.

B4: IL6R-G1d/IL6R-L (antibody, human IgG1)
heavy: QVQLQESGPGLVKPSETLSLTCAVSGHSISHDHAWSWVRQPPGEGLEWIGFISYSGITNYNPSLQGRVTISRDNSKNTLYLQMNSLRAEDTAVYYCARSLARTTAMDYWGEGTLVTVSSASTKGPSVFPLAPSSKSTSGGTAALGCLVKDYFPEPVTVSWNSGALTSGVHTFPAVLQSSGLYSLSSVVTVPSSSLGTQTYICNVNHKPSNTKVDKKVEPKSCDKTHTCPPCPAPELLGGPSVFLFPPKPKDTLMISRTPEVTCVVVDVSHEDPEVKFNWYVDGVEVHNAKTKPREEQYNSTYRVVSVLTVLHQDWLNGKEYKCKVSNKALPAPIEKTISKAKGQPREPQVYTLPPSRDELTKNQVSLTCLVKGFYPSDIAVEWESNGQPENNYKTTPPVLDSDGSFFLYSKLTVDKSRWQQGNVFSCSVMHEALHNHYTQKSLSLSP
light: B1 light
notes: Anti-human IL-6 receptor IgG1, G1d constant region; also called IgG1
For B4, the Kd came to 10 µM with human FcγRIIa type R [3] and 26 µM in the assay with human FcγRIIb [4].

B5: IL6R-2B261/IL6R-L (antibody, human IgG1, name in EU numbering)
heavy: B1 heavy with E235D, F239G, Y254M, Y298D, Y436N, K441E
light: B1 light
notes: as for B3
Molecule B5 had a dissociation constant (Kd) with human FcγRIIb [4] of 10 µM.

B6: IL6R-BF648/IL6R-L (antibody, human IgG1, name in EU numbering)
heavy: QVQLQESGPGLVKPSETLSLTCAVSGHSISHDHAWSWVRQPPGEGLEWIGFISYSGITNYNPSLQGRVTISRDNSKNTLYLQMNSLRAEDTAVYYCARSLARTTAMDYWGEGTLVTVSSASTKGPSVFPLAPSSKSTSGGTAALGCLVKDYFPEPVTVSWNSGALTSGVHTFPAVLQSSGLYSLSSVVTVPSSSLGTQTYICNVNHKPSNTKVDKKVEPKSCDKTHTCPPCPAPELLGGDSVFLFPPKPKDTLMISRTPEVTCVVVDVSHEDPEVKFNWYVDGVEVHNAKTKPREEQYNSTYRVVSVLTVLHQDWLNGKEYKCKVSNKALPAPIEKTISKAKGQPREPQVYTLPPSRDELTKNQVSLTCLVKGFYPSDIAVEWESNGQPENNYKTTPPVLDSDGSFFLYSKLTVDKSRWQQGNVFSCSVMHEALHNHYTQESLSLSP
light: B1 light
notes: Alteration introduced into IL6R-B3; positions in EU numbering
In the assay with human FcγRIIb [4], B6 returned a Kd of 12 µM.

B7: VH3/L(WT)-IgG1-F939 (antibody)
heavy: B1 heavy with L237R, F239G, D240P, S241K, Y438V
light: not shown
notes: L235R/S239K variant of VH3-IgG1-F890 with L(WT)-CK; also called VH3-IgG1-F939; copies: 2 + 2
On to B7, for which the binding result with mouse FcγRIIb, with mouse FcγRIII and in the assay with mouse FcγRI was “no binding” throughout.

B8: IL6R-BP146/IL6R-L (antibody, human IgG1, name in EU numbering)
heavy: B1 heavy with L236Y, F239D, Y254M, K328A, Y436N, K441E
light: B1 light
notes: as for B3
Turning to B8, the equilibrium dissociation constant (Kd) in the assay with human FcγRIIa type R [3] was determined as 21 µM.

B9: IL6R-BP147/IL6R-L (antibody, human IgG1, name in EU numbering)
heavy: B1 heavy with L236Y, F239D, Y254M, K328A, A332K, Y436N, K441E
light: B1 light
notes: as for B3
Take B9: the “KD(IIaH)/KD(IIb)” value in the assay with human FcγRIIb [2] was found to be 77.7.

B10: VH3/L(WT)-IgG1-F1009 (antibody)
heavy: B1 heavy with L237R, F239G, D240P, S241K, T252V, T309Q, V310P, Q313A, Y438V
light: not shown
notes: L235R/S239K variant of VH3-IgG1-F947 with L(WT)-CK; also called VH3-IgG1-F1009; copies: 2 + 2
In the case of B10, the binding result with mouse FcγRIIb, with mouse FcγRIII and with mouse FcγRI was “no binding” in each case.

B11: GpH7-B3 L328R/GpL16-k0 (antibody, human IgG1)
heavy: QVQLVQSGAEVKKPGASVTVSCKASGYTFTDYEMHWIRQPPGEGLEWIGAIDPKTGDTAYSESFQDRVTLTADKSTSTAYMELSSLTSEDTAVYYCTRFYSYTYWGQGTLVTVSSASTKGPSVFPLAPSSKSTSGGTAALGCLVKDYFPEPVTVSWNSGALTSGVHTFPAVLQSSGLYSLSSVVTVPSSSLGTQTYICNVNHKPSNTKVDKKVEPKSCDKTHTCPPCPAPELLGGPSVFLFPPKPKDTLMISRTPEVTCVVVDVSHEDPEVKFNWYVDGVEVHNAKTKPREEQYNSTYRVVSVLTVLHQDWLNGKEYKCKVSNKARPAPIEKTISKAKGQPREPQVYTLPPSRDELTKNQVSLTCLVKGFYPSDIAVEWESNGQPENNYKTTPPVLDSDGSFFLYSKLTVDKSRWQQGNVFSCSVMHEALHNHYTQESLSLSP
light: DIVMTQSPLSLPVTPGEPASISCQASESLVHSNRNTYLHWYLQKPGQSPQLLIYKVSNRFSGVPDRFSGSGSGTDFTLKISRVEAEDVGVYYCSQNTHVPPTFGQGTKVEIE
notes: Anti-glypican-3 human IgG1 with B3 constant region (G1d with K439E); also called B3 variant; copies: 2 + 2
Turning to B11, the relative binding activity is 3 % of GpH7-B3/GpL16-k0 with human FcγRIIb [5] and 1 % of GpH7-B3/GpL16-k0 in the assay with human FcγRIIIa(F).

B12: GpH7-B3 G236K/GpL16-k0 (antibody, human IgG1)
heavy: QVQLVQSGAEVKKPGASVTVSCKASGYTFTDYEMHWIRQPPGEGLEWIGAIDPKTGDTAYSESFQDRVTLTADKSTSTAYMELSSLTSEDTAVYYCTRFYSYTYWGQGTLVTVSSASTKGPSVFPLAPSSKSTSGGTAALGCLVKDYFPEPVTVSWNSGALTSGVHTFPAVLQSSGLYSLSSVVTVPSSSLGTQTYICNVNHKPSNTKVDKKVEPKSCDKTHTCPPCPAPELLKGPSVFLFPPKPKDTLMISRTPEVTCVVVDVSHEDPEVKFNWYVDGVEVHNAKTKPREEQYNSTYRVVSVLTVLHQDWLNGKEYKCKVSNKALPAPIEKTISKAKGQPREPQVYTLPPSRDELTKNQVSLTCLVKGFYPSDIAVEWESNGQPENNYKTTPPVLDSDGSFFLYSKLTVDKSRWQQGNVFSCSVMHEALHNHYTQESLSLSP
light: B11 light
notes: anti-glypican-3 IgG1; B3 constant region (G1d with K439E); also called B3 variant; copies: 2 + 2
As to B12, the relative binding activity with human FcγRIIa(R) was 9 % of GpH7-B3/GpL16-k0.

B13: GpH7-B3 P329Q/GpL16-k0 (antibody, human IgG1)
heavy: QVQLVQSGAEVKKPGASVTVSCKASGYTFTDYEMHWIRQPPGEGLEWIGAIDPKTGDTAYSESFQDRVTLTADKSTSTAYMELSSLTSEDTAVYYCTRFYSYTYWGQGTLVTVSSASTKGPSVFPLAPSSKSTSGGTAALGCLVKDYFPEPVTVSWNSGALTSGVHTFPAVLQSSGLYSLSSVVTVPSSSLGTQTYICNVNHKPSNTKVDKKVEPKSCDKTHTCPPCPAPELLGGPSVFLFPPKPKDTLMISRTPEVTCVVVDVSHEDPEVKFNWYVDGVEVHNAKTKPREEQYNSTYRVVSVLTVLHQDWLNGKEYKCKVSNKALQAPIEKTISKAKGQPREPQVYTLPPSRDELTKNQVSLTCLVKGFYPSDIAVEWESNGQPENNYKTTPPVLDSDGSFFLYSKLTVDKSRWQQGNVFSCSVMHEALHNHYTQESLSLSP
light: B11 light
notes: as for B11
Consider B13, for which the values for the relative binding activity in the assay with human FcγRIIb [5] and in the assay with human FcγRIIIa(F) were 2 % of GpH7-B3/GpL16-k0 and 1 % of GpH7-B3/GpL16-k0, respectively.

B14: GpH7-B3 L234G/GpL16-k0 (antibody, human IgG1)
heavy: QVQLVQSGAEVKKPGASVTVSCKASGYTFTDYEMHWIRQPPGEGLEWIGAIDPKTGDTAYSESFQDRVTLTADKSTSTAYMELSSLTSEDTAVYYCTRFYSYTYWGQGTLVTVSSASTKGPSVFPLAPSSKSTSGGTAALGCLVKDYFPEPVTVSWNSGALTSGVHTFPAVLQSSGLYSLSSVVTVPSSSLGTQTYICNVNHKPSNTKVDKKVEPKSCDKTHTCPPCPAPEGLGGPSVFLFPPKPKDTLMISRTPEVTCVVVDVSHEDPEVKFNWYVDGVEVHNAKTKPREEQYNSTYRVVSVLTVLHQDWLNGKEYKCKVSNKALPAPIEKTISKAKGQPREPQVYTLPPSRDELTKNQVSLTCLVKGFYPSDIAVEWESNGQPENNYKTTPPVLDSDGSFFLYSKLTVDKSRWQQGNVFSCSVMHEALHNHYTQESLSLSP
light: B11 light
notes: as for B12
B14: the relative binding activity in the assay with human FcγRIIa(R) is 9 % of GpH7-B3/GpL16-k0.

B15: GpH7-B3 variant G237R/GpL16-k0 (antibody, human IgG1)
heavy: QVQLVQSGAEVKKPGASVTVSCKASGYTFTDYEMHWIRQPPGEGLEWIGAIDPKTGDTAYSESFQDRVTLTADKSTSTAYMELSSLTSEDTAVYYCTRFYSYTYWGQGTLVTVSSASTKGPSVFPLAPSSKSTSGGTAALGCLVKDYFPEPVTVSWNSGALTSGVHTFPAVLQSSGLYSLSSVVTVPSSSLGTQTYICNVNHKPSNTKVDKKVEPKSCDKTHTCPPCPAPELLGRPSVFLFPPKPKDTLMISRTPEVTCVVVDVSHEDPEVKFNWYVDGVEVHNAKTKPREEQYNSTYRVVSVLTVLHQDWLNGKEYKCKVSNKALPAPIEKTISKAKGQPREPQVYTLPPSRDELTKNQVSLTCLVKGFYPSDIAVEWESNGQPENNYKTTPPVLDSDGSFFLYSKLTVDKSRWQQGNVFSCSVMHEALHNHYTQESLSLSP
light: B11 light
notes: copies: 2 + 2
For B15, the relative binding activity in the assay with human FcγRIIb [6] is 1 % of GpH7-B3/GpL16-k0.

B16: GpH7-B3 variant D265M/GpL16-k0 (antibody, human IgG1)
heavy: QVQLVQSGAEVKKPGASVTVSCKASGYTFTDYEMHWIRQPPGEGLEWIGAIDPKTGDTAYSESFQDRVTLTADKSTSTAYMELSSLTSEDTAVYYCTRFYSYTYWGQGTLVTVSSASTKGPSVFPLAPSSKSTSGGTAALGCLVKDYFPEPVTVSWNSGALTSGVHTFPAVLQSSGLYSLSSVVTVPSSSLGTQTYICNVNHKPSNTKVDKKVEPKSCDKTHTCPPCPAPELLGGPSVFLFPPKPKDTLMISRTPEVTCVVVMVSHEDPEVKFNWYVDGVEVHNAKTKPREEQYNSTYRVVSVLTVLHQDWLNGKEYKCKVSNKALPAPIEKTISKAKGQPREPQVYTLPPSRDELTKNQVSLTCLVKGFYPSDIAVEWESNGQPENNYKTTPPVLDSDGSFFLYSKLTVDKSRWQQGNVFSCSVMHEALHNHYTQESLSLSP
light: B11 light
notes: copies: 2 + 2
Turning to B16, the relative binding activity with human FcγRIIb [6] was 2 % of GpH7-B3/GpL16-k0.

Usually Kd stands for the free concentration of one partner at which half of the binding sites on the other are occupied at equilibrium, for simple one-to-one binding. A higher Kd goes with lower affinity.
